Substrate in the data set: Nc1ncnc2c1ncn2[C@@H]1O[C@H](COP(=O)(O)OP(=O)(O)OP(=O)(O)O)[C@@H](O)[C@H]1O
The data set can be described thus: SRPK1 kinase assay, determination of Km for ATP (double-reciprocal plots, SF2/ASF as substrate). In kind it is biochemical, human. Particulars: other: ATP titrated against four SF2/ASF concentrations (bacterially expressed SF2/ASF as substrate), pH 7.4, 30.0 °C. The procedure: FIG. 7 describes the kinetic properties of SRPK1. […] Different ATP concentrations were titrated against four SF2/ASF concentrations (.diamond-solid.0.05 μM; .circle-solid.0.1 μM; Δ0.05 μM; .diamond.0.7 μM). […] Five SF2/ASF concentrations (0.05 μM, 0.1 μM, 0.25 μM, 0.5 μM, and 1.0 μM) and four MBP concentrations (2.5 μM, 5.0 μM, 12.5 μM, and 25 μM) were used in the phosphorylation reactions. Saturating ATP (100 μM) and SRPK1 (27,000 units) were used in these reactions.
0.5 μg of purified SC35 or SF2/ASF was used as a substrate in a final volume of 20 μl kinase assay mixture containing 50 mM Tris-pH7.4, 10 mM MgCl2, 1 mM DTT, 2 μM ATP, and 2 μCi [^32 P-]ATP. The reaction was initiated by adding 2 μl of each column fraction and incubated at room temperature for 15 min. Proteins were, resolved in a 12.5% SDS gel. After staining and autoradiography, gel slices containing radioactive proteins were quantitated in a liquid scintillation counter. For saturation phosphorylation of SF2/ASF, 100 μM ATP was used, and the reaction was carried out at 30° C. for 2 hours.
SRPK1 is specific for splicing factors containing an SR domain as shown in EXAMPLE 4. Kinetic analyses were carried out to further characterize the kinase. […] The kinase activity depended on ATP concentration with a Km for ATP of 10 μM (FIG. 7A). […]

B1: SRPK1 (SR protein-specific kinase, 92 kD) purified from Hela cell S100 extracts, SEQ ID NO:2 (Homo sapiens) (protein)
chain: MERKVLALQARKKRTKAKKDKAQRKSETQHRGSAPHSESDLPEQEEEILGSDDDEQEDPNDYCKGGYHLVKIGDLFNGRYHVIRKLGWGHFSTVWLSWDIQGKKFVAMKVVKSAEHYTETALDEIRLLKSVRNSDPNDPNREMVVQLLDDFKISGVNGTHICMVFEVLGHHLLKWIIKSNYQGLPLPCVKKIIQQVLQGLDYLHTKCRIIHTDIKPENILLSVNEQYIRRLAAEATEWQRSGAPPPSGSAVSTAPQPKPADKMSKNKKKKLKKKQKRQAELLEKRMQEIEEMEKESGPGQKRPNKQEESESPVERPLKENPPNKMTQEKLEESSTIGQDQTLMERDTEGGAAEINCNGVIEVINYTQNSNNETLRHKEDLHNANDCDVQNLNQESSFLSSQNGDSSTSQETDSCTPITSEVSDTMVCQSSSTVGQSFSEQHISQLQESIRAEIPCEDEQEQEHNGPLDNKGKSTAGNFLVNPLEPKNAEKLKVKIADLGNACWVHKHFTEDIQTRQYRSLEVLIGSGYNTPADIWSTACMAFELATGDYLFEPHSGEEYTRDEDHIALIIELLGKVPRKLIVAGKYSKEFFTKKGDLKHITKLKPWGLFEVLVEKYEWSQEEAAGFTDFLLPMLELIPEKRATAAECLRHPWLNS
notes: SRPK1 PURIFICATION FROM HELA CELL S100 EXTRACTS; endogenous in cells; host or cells: HeLa cells (S100 extract; phosphocellulose P11, Phenyl Sepharose, Mono Q, Mono S)
For B1, the Km (commonly the substrate concentration at which the rate is half of its maximum) stood at 10 µM.

Values taken from patent US5559019A, “Protein serine kinase, SRPK1” (The Regents of the University of California, priority 1994, dated 1996).
